Data as given in patent US20030049732A1 (Human Genome Sciences, published 2003).

Target: T1, Apaf-1 (UniProt O14727-3 1-1194, limits assumed)
T1 sequence (looked up): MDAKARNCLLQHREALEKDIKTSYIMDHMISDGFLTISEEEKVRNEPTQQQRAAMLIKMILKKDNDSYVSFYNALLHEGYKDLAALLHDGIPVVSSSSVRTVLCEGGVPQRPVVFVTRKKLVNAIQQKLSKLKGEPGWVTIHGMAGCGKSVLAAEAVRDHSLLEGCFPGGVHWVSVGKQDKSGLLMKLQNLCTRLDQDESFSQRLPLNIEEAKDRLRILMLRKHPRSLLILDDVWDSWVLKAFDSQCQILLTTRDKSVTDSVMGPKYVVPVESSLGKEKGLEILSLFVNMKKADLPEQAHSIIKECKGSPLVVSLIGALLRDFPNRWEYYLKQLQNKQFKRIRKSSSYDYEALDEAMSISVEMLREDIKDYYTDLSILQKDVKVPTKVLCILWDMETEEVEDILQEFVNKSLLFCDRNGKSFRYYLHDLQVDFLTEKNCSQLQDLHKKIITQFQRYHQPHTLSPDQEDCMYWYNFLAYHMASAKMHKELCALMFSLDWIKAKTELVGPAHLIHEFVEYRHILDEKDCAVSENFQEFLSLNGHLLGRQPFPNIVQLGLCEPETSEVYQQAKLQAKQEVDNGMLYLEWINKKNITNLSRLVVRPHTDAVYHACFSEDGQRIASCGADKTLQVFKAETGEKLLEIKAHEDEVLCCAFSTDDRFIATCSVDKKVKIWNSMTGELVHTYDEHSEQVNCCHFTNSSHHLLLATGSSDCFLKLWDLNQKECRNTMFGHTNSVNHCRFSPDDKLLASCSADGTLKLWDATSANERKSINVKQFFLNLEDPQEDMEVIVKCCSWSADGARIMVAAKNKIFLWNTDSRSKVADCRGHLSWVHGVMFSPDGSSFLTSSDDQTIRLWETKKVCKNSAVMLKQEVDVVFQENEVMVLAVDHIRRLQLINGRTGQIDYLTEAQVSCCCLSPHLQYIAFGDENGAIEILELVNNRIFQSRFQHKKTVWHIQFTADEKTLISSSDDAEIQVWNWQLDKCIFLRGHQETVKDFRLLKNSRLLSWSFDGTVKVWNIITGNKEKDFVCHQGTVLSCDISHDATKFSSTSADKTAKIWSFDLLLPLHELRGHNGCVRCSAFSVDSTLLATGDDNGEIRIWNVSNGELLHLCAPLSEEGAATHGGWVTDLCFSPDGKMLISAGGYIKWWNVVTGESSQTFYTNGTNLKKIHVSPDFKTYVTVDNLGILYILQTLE
Experiment: co-immunoprecipitation, tagged proteins transiently expressed in 293T cells
Description: The CARD and its structurally related death effector domain (DED) are peptide motifs that mediate interactions between apoptosis-regulatory proteins (Science 281:1301 (1998); Hofmann et al., Trends Biochem. Sci. 22:155 (1998)).

B1: Nod1 (other)
chain: MEEQGHSEMEIIPSESHPHIQLLKSNRELLVTHIRNTQCLVDNLLKNDYFSAEDAEIVCACPTQPDKVRKILDLVQSKGEEVSEFFLYLLQQLADAYVDLRPWLLEIGFSPSLLTQSKVVVNTDPVSRYTQQLRHHLGRDSKFVLCYAQKEELLLEEIYMDTIMELVGFSNESLGSLNSLACLLDHTTGILNEQGETIFILGDAGVGKSMLLQRLQSLWATGRLDAGVKFFFHFRCRMFSCFKESDRLCLQDLLFKHYCYPERDPEEVFAFLLRFPHVALFTFDGLDELHSDLDLSRVPDSSCPWEPAHPLVLLANLLSGKLLKGASKLLTARTGIEVPRQFLRKKVLLRGFSPSHLRAYARRMFPERALQDRLLSQLEANPNLCSLCSVPLFCWIIFRCFQHFRAAFEGSPQLPDCTMTLTDVFLLVTEVHLNRMQPSSLVQRNTRSPVETLHAGRDTLCSLGQVAHRGMEKSLFVFTQEEVQASGLQERDMQLGFLRALPELGPGGDQQSYEFFHLTLQAFFTAFFLVLDDRVGTQELLRFFQEWMPPAGAATTSCYPPFLPFQCLQGSGPAREDLFKNKDHFQFTNLFLCGLLSKAKQKLLRHLVPAAALRRKRKALWAHLFSSLRGYLKSLPRVQVESFNQVQAMPTFIWMLRCIYETQSQKVGQLAARGICANYLKLTYCNACSADCSALSFVLHHFPKRLALDLDNNNLNDYGVRELQPCFSRLTVLRLSVNQITDGGVKVLSEELTKYKIVTYLGLYNNQITDVGARYVTKILDECKGLTHLKLGKNKITSEGGKYLALAVKNSKSISEVGMWGNQVGDEGAKAFAEALRNHPSLTTLSLASNGISTEGGKSLARALQQNTSLEILWLTQNELNDEVAESLAEMLKVNQTLKHLWLIQNQITAKGTAQLADALQSNTGITEICLNGNLIKPEEAKVYEDEKRIICF
notes: also called wild-type Nod1; WT Nod1
binding result: no binding
